From patent US20100104564A1 (published 2010)

Target: T1, human FcRn (recombinant soluble receptor, 6XHis, co-expressed with beta2 microglobulin) (human, UniProt P61769 21-119)
T1 construct: purified on nickel; also called huFcRn
Experiment: Luminex assay, pH 6
Method: FcRn binding by single and multiple substitution variants was also assessed. The fold difference in binding as compared to wild type anti-CD30 (unaltered Fc) was measured in luminex assays.

T1 sequence (chain, as listed by the source limits assumed, chain 1 of 2): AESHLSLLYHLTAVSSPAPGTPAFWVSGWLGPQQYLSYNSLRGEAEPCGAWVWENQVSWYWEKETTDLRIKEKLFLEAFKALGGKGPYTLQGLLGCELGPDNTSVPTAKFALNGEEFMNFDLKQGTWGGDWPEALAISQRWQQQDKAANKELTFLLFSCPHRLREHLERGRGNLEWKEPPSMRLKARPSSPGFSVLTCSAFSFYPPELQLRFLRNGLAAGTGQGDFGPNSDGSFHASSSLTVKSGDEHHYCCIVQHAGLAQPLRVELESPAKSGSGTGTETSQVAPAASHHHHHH
T1 sequence (P61769 21-119 limits assumed, chain 2 of 2): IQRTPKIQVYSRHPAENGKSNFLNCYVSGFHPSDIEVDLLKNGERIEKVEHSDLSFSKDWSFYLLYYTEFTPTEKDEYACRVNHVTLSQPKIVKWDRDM

Binder | FcRn binding at pH 6 (fold difference vs wild type anti-CD30)
anti-CD30 antibody (5F11) variant E345W (antibody, Single Fc substitution in the 5F11 antibody; EU numbering, not the numbering of the UniProt entry) heavy: not shown light: DIQMTQSPTSLSASVGDRVTITCRASQGISSWLTWYQQKPEKAPKSLIYAASSLQSGVPSRFSGSGSGTDFTLTISSLQPEDFATYYCQQYDSYPITFGQGTRLEIKRTVAAPSVFIFPPSDEQLKSGTASVVCLLNNFYPREAKVQWKVDNALQSGNSQESVTEQDSKDSTYSLSSTLTLSKADYEKHKVYACEVTHQGLSSPVTKSFNRGEC | 1.3 fold vs wild type
anti-CD30 antibody (5F11) variant P247I (antibody, Single Fc substitution in the 5F11 antibody; EU numbering, not the numbering of the UniProt entry; copies: 2 + 2) heavy: not shown light: DIQMTQSPTSLSASVGDRVTITCRASQGISSWLTWYQQKPEKAPKSLIYAASSLQSGVPSRFSGSGSGTDFTLTISSLQPEDFATYYCQQYDSYPITFGQGTRLEIKRTVAAPSVFIFPPSDEQLKSGTASVVCLLNNFYPREAKVQWKVDNALQSGNSQESVTEQDSKDSTYSLSSTLTLSKADYEKHKVYACEVTHQGLSSPVTKSFNRGEC | 1.1 fold vs wild type
anti-CD30 antibody (5F11) variant G446W (antibody, Single Fc substitution in the 5F11 antibody; EU numbering, not the numbering of the UniProt entry; copies: 2 + 2) heavy: not shown light: DIQMTQSPTSLSASVGDRVTITCRASQGISSWLTWYQQKPEKAPKSLIYAASSLQSGVPSRFSGSGSGTDFTLTISSLQPEDFATYYCQQYDSYPITFGQGTRLEIKRTVAAPSVFIFPPSDEQLKSGTASVVCLLNNFYPREAKVQWKVDNALQSGNSQESVTEQDSKDSTYSLSSTLTLSKADYEKHKVYACEVTHQGLSSPVTKSFNRGEC | 1.1 fold vs wild type
anti-CD30 antibody (5F11) variant S426W (antibody, Single Fc substitution in the 5F11 antibody; EU numbering, not the numbering of the UniProt entry; copies: 2 + 2) heavy: not shown light: DIQMTQSPTSLSASVGDRVTITCRASQGISSWLTWYQQKPEKAPKSLIYAASSLQSGVPSRFSGSGSGTDFTLTISSLQPEDFATYYCQQYDSYPITFGQGTRLEIKRTVAAPSVFIFPPSDEQLKSGTASVVCLLNNFYPREAKVQWKVDNALQSGNSQESVTEQDSKDSTYSLSSTLTLSKADYEKHKVYACEVTHQGLSSPVTKSFNRGEC | 0.6 fold vs wild type
anti-CD30 antibody (5F11) variant A378P (antibody, Single Fc substitution in the 5F11 antibody; EU numbering, not the numbering of the UniProt entry; copies: 2 + 2) heavy: not shown light: DIQMTQSPTSLSASVGDRVTITCRASQGISSWLTWYQQKPEKAPKSLIYAASSLQSGVPSRFSGSGSGTDFTLTISSLQPEDFATYYCQQYDSYPITFGQGTRLEIKRTVAAPSVFIFPPSDEQLKSGTASVVCLLNNFYPREAKVQWKVDNALQSGNSQESVTEQDSKDSTYSLSSTLTLSKADYEKHKVYACEVTHQGLSSPVTKSFNRGEC | 0.6 fold vs wild type
anti-CD30 antibody (5F11) variant F404W (antibody, Single Fc substitution in the 5F11 antibody; EU numbering, not the numbering of the UniProt entry; copies: 2 + 2) heavy: not shown light: DIQMTQSPTSLSASVGDRVTITCRASQGISSWLTWYQQKPEKAPKSLIYAASSLQSGVPSRFSGSGSGTDFTLTISSLQPEDFATYYCQQYDSYPITFGQGTRLEIKRTVAAPSVFIFPPSDEQLKSGTASVVCLLNNFYPREAKVQWKVDNALQSGNSQESVTEQDSKDSTYSLSSTLTLSKADYEKHKVYACEVTHQGLSSPVTKSFNRGEC | 1.7 fold vs wild type
anti-CD30 antibody (5F11) variant D376T (antibody, Single Fc substitution in the 5F11 antibody; EU numbering, not the numbering of the UniProt entry; copies: 2 + 2) heavy: not shown light: DIQMTQSPTSLSASVGDRVTITCRASQGISSWLTWYQQKPEKAPKSLIYAASSLQSGVPSRFSGSGSGTDFTLTISSLQPEDFATYYCQQYDSYPITFGQGTRLEIKRTVAAPSVFIFPPSDEQLKSGTASVVCLLNNFYPREAKVQWKVDNALQSGNSQESVTEQDSKDSTYSLSSTLTLSKADYEKHKVYACEVTHQGLSSPVTKSFNRGEC | 1.6 fold vs wild type
anti-CD30 antibody (5F11) variant P396I (antibody, Single Fc substitution in the 5F11 antibody; EU numbering, not the numbering of the UniProt entry; copies: 2 + 2) heavy: not shown light: DIQMTQSPTSLSASVGDRVTITCRASQGISSWLTWYQQKPEKAPKSLIYAASSLQSGVPSRFSGSGSGTDFTLTISSLQPEDFATYYCQQYDSYPITFGQGTRLEIKRTVAAPSVFIFPPSDEQLKSGTASVVCLLNNFYPREAKVQWKVDNALQSGNSQESVTEQDSKDSTYSLSSTLTLSKADYEKHKVYACEVTHQGLSSPVTKSFNRGEC | 1.4 fold vs wild type
anti-CD30 antibody (5F11) variant S254W (antibody, Single Fc substitution in the 5F11 antibody; EU numbering, not the numbering of the UniProt entry; copies: 2 + 2) heavy: not shown light: DIQMTQSPTSLSASVGDRVTITCRASQGISSWLTWYQQKPEKAPKSLIYAASSLQSGVPSRFSGSGSGTDFTLTISSLQPEDFATYYCQQYDSYPITFGQGTRLEIKRTVAAPSVFIFPPSDEQLKSGTASVVCLLNNFYPREAKVQWKVDNALQSGNSQESVTEQDSKDSTYSLSSTLTLSKADYEKHKVYACEVTHQGLSSPVTKSFNRGEC | 0.2 fold vs wild type
anti-CD30 antibody (5F11) variant S354R (antibody, Single Fc substitution in the 5F11 antibody; EU numbering, not the numbering of the UniProt entry; copies: 2 + 2) heavy: not shown light: DIQMTQSPTSLSASVGDRVTITCRASQGISSWLTWYQQKPEKAPKSLIYAASSLQSGVPSRFSGSGSGTDFTLTISSLQPEDFATYYCQQYDSYPITFGQGTRLEIKRTVAAPSVFIFPPSDEQLKSGTASVVCLLNNFYPREAKVQWKVDNALQSGNSQESVTEQDSKDSTYSLSSTLTLSKADYEKHKVYACEVTHQGLSSPVTKSFNRGEC | 1.3 fold vs wild type
anti-CD30 antibody (5F11) variant E356K (antibody, Single Fc substitution in the 5F11 antibody; EU numbering; copies: 2 + 2) heavy: not shown light: DIQMTQSPTSLSASVGDRVTITCRASQGISSWLTWYQQKPEKAPKSLIYAASSLQSGVPSRFSGSGSGTDFTLTISSLQPEDFATYYCQQYDSYPITFGQGTRLEIKRTVAAPSVFIFPPSDEQLKSGTASVVCLLNNFYPREAKVQWKVDNALQSGNSQESVTEQDSKDSTYSLSSTLTLSKADYEKHKVYACEVTHQGLSSPVTKSFNRGEC | 1.4 fold vs wild type
